Experiment [1] addresses HCV 1b E2 deletion construct pDN-411 (influenza virus; Hepatitis C virus genotype 1b). Kind of experiment: GNA capture ELISA, HEK-293 extracts.
The target is the same in experiment [2]. The experiment in a line: flow cytometry, transiently transfected HEK-293 cells, 10 ug/ml.

Consider HMAb CBH-2 (antibody), for which, in experiment [1], the OD was in the range of 0.1 to 0.5 od.
Substance HMAb CBH-4B (antibody) gave an OD in experiment [1] above 0.5 od. For the same substance, in experiment [2], the mean fluorescence came out at 17.
In experiment [1], HMAb CBH-5 (antibody) gave an OD above 0.5 od. Further, the mean fluorescence in experiment [2] is 17.
HMAb CBH-7 (antibody) displayed an OD in experiment [1] above 0.5 od. The same substance returned a mean fluorescence in experiment [2] of 19.
In turn, HMAb CBH-8C (antibody) gave an OD in experiment [1] above 0.5 od.
In experiment [1], HMAb CBH-8E (antibody) came in with an OD of 0.1 to 0.5 od.
HMAb CBH-17 (antibody): the OD in experiment [1] lay in the range of 0.1 to 0.5 od.

These data come from US20060104980A1.
